Reference: PMC12607152

What was measured:
[1] = target: T1, CcpA (catabolite control protein A) (Staphylococcus aureus (XN108?)) (UniProt P99175); assay: EMSA; conditions: not given in the material; EMSA as previously described (ref 22)
T1 sequence: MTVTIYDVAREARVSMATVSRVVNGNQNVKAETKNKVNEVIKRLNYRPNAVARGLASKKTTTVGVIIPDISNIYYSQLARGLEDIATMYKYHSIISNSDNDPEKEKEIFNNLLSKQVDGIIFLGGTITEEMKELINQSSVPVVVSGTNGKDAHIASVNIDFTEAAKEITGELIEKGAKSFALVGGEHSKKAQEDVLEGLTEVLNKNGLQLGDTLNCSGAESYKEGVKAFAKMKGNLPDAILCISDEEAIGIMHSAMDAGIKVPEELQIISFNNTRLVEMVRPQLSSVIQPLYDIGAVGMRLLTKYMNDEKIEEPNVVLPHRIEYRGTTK

[2] = target: T1, CcpA (catabolite control protein A) (Staphylococcus aureus (XN108?)); assay: competition; conditions: not given in the material; EMSA as previously described (ref 22)

Sequence | binding [1] | binding [2]
CAGTCCTCAACTCTTTTAATGTTTTCATGTTGTCACCGCCTTTCGTAAACCTAATATAATACGAAATTTTCGTATTGTCAACATTAAATACGTTTTTTTCGTAAAAAACTTTACTATGATATGAAAATTTCGTATAATAAGAAAAAAGGAGGTAAGTAAT (double strand) [PcI probe (160-bp region upstream of cI)] | binds | 
CAGTCCTCAACTCTTTTAATGTTTTCATGTTGTCACCGCCTTTCGTAAACCTAATATAATACGAAATTTTCGTATTGTCAACATTAAATACGTTTTTTTCGTAAAAAACTTTACTATGATATGAAAATTTCGTATAATAAGAAAAAAGGAGGTAAGTAAT (double strand) [PcI unlabeled competitor] |  | binds
